25 sequences from the supplement of paper PMC9233669 can be followed below.

In one data set the test system is biotinyl-Val-oxazolone. The data set is described as follows: self-aminoacylation, catalytic enhancement (BVO) (fold over background); higher = more active; k-Seq, kA / k0A0; sequences stand for … in GGGAAUGGAUCCACAUCUACGAAUUC…UUCACUGCAGACUUGACGAAGCUG
The essentials: (§1)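 Mutagenized RNA pools with a 21-nt variable region (0.43 μM) reacted with each biotinyl-aminoacyl-oxazolone at 2–1250 μM. Reactions ran in 50 μL HEPES/NaCl/KCl/MgCl2/CaCl2 buffer with 5% acetonitrile, pH 6.9–7.0, for 90 minutes at room temperature. Streptavidin-captured RNA was quantified by triplicate qPCR and Illumina sequencing, and per-sequence fraction reacted was fit to a pseudo-first-order model with 1000 bootstraps. Catalytic enhancement is median kA divided by the uncatalyzed rate, the low-activity peak of a bimodal Gaussian fit.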

The next data set has as its system biotinyl-Trp-oxazolone. The data set is described as follows: self-aminoacylation, catalytic enhancement (BWO) (fold over background); higher = more active; k-Seq, kA / k0A0; sequences stand for … in GGGAAUGGAUCCACAUCUACGAAUUC…UUCACUGCAGACUUGACGAAGCUG
The method in brief:
as §1

For a further data set, the system named is biotinyl-Phe-oxazolone. The data set is described as follows: self-aminoacylation, catalytic enhancement (BFO) (fold over background); higher = more active; k-Seq, kA / k0A0; sequences stand for … in GGGAAUGGAUCCACAUCUACGAAUUC…UUCACUGCAGACUUGACGAAGCUG
The method in brief:
as §1

The test system of the next data set is biotinyl-Leu-oxazolone. The data set can be described thus: self-aminoacylation, catalytic enhancement (BLO) (fold over background); higher = more active; k-Seq, kA / k0A0; sequences stand for … in GGGAAUGGAUCCACAUCUACGAAUUC…UUCACUGCAGACUUGACGAAGCUG
The method in brief: as §1

Another data set concerns biotinyl-Met-oxazolone. The data set can be described thus: self-aminoacylation, catalytic enhancement (BMO) (fold over background); higher = more active; k-Seq, kA / k0A0; sequences stand for … in GGGAAUGGAUCCACAUCUACGAAUUC…UUCACUGCAGACUUGACGAAGCUG
The method in brief: as §1

The next data set concerns biotinyl-Ile-oxazolone. The data set can be described thus: self-aminoacylation, catalytic enhancement (BIO) (fold over background); higher = more active; k-Seq, kA / k0A0; sequences stand for … in GGGAAUGGAUCCACAUCUACGAAUUC…UUCACUGCAGACUUGACGAAGCUG
The method in brief:
as §1

This sample holds only a part of the variants without activity.

Take “AUUACCCUGGUCAUCGCGUGA [Fam2.1 aminoacylation ribozyme variant]”: the self-aminoacylation with biotinyl-Val-oxazolone is 9.74; in the data set on biotinyl-Trp-oxazolone, 20.1; with biotinyl-Phe-oxazolone, 139; in the data set on biotinyl-Leu-oxazolone, 20.3; with biotinyl-Met-oxazolone, 18.3; with biotinyl-Ile-oxazolone, 8.09.
“AUUACCCUGGUCAUCGGGUGA [Fam2.1 aminoacylation ribozyme variant]”: the self-aminoacylation in the data set with biotinyl-Val-oxazolone is 60.9; in the data set with biotinyl-Trp-oxazolone it was 140; in the data set with biotinyl-Phe-oxazolone it was 711; with biotinyl-Leu-oxazolone, 133; with biotinyl-Met-oxazolone, 122; in the data set on biotinyl-Ile-oxazolone, 47.
As to “AUUACCCUGGUCAUCGGGUGU [Fam2.1 aminoacylation ribozyme variant]”, the self-aminoacylation in the data set with biotinyl-Val-oxazolone was 56.5; in the data set on biotinyl-Trp-oxazolone, 133; in the data set on biotinyl-Phe-oxazolone, 722; in the data set on biotinyl-Leu-oxazolone, 136; with biotinyl-Met-oxazolone, 123; with biotinyl-Ile-oxazolone, 40.7.
On to “AUUACCCUGGUCAUCGGGUUA [Fam2.1 aminoacylation ribozyme variant]”, for which the self-aminoacylation in the data set with biotinyl-Val-oxazolone was 17.8; in the data set on biotinyl-Trp-oxazolone, 45.8; in the data set on biotinyl-Phe-oxazolone it was 218; with biotinyl-Leu-oxazolone, 42.4; in the data set on biotinyl-Met-oxazolone, 38.5; with biotinyl-Ile-oxazolone, 12.3.
For the sequence “AUUACCCUGGUCAUCGGUUGA [Fam2.1 aminoacylation ribozyme variant]”, the self-aminoacylation with biotinyl-Val-oxazolone is 1.34; in the data set on biotinyl-Trp-oxazolone, 3.08; in the data set with biotinyl-Phe-oxazolone, 6.78; with biotinyl-Leu-oxazolone, 1.94; with biotinyl-Met-oxazolone, 2; with biotinyl-Ile-oxazolone, 1.62.
Consider “AUUACCCUGGUCAUCGUAUGA [Fam2.1 aminoacylation ribozyme variant]”, for which the self-aminoacylation is 1.02 with biotinyl-Val-oxazolone; 0.855 with biotinyl-Trp-oxazolone; 0.633 with biotinyl-Phe-oxazolone; 0.814 with biotinyl-Leu-oxazolone; 0.984 with biotinyl-Met-oxazolone; 0.789 in the data set on biotinyl-Ile-oxazolone.
For “AUUACCCUGGUCAUCGUGGGA [Fam2.1 aminoacylation ribozyme variant]”, the self-aminoacylation is 1.22 in the data set with biotinyl-Val-oxazolone; 1.98 in the data set with biotinyl-Trp-oxazolone; 4.91 with biotinyl-Phe-oxazolone; 1.58 in the data set on biotinyl-Leu-oxazolone; 1.33 in the data set with biotinyl-Met-oxazolone; 1.18 in the data set with biotinyl-Ile-oxazolone.
In the case of “AUUACCCUGGUCAUCUAGUGU [Fam2.1 aminoacylation ribozyme variant]”, the self-aminoacylation in the data set with biotinyl-Val-oxazolone was found to be 2.48; in the data set with biotinyl-Trp-oxazolone, 4.88; in the data set with biotinyl-Phe-oxazolone, 9.89; in the data set with biotinyl-Leu-oxazolone, 4.08; in the data set on biotinyl-Met-oxazolone, 4.11; in the data set with biotinyl-Ile-oxazolone it was 2.02.
As to “AUUACCCUGGUCAUGGAGGGA [Fam2.1 aminoacylation ribozyme variant]”, the self-aminoacylation was 1.76 in the data set with biotinyl-Val-oxazolone; 2.23 in the data set on biotinyl-Trp-oxazolone; 2.1 in the data set on biotinyl-Phe-oxazolone; 1.86 in the data set with biotinyl-Leu-oxazolone; 1.83 in the data set with biotinyl-Met-oxazolone; 1.82 in the data set on biotinyl-Ile-oxazolone.
“AUUACCCUGGUCAUGGAGUCA [Fam2.1 aminoacylation ribozyme variant]”: the self-aminoacylation in the data set on biotinyl-Val-oxazolone is 1.01; with biotinyl-Trp-oxazolone it was 0.594; in the data set on biotinyl-Phe-oxazolone, 0.746; in the data set with biotinyl-Leu-oxazolone, 0.838; with biotinyl-Met-oxazolone it was 0.798; in the data set with biotinyl-Ile-oxazolone it was 0.907.
On to “AUUACCCUGGUCAUUGCGUGA [Fam2.1 aminoacylation ribozyme variant]”, for which the self-aminoacylation in the data set on biotinyl-Val-oxazolone was 7.31; with biotinyl-Trp-oxazolone, 17.1; in the data set with biotinyl-Phe-oxazolone it was 108; in the data set on biotinyl-Leu-oxazolone it was 18.1; with biotinyl-Met-oxazolone it was 15.8; with biotinyl-Ile-oxazolone it was 6.44.
Take “AUUACCCUGGUCAUUUAGUGA [Fam2.1 aminoacylation ribozyme variant]”: the self-aminoacylation with biotinyl-Val-oxazolone is 5.82; in the data set on biotinyl-Trp-oxazolone, 14.4; in the data set on biotinyl-Phe-oxazolone, 70; in the data set with biotinyl-Leu-oxazolone, 11.1; in the data set on biotinyl-Met-oxazolone, 11.7; with biotinyl-Ile-oxazolone it was 5.57.
Take “AUUACCCUGGUCCUCGCGUGA [Fam2.1 aminoacylation ribozyme variant]”: the self-aminoacylation in the data set with biotinyl-Val-oxazolone was 7.66; in the data set with biotinyl-Trp-oxazolone, 13.8; with biotinyl-Phe-oxazolone, 87.3; with biotinyl-Leu-oxazolone it was 15.1; with biotinyl-Met-oxazolone it was 11; with biotinyl-Ile-oxazolone, 5.45.
Take “AUUACCCUGGUCCUCGGGUGA [Fam2.1 aminoacylation ribozyme variant]”: the self-aminoacylation in the data set on biotinyl-Val-oxazolone came to 6.25; in the data set with biotinyl-Trp-oxazolone it was 9.25; with biotinyl-Phe-oxazolone, 69.6; with biotinyl-Leu-oxazolone it was 10.4; in the data set on biotinyl-Met-oxazolone, 9.89; in the data set with biotinyl-Ile-oxazolone it was 5.18.
For the sequence “AUUACCCUGGUCCUCUAGUGA [Fam2.1 aminoacylation ribozyme variant]”, the self-aminoacylation stood at 5.33 with biotinyl-Val-oxazolone; 12.3 in the data set with biotinyl-Trp-oxazolone; 79.1 with biotinyl-Phe-oxazolone; 10.6 in the data set with biotinyl-Leu-oxazolone; 9.46 in the data set with biotinyl-Met-oxazolone; 4.37 in the data set with biotinyl-Ile-oxazolone.
As to “AUUACCCUGGUCGCCGAGUGA [Fam2.1 aminoacylation ribozyme variant]”, the self-aminoacylation in the data set on biotinyl-Val-oxazolone was 2.58; in the data set on biotinyl-Trp-oxazolone it was 4.48; with biotinyl-Phe-oxazolone, 22.8; with biotinyl-Leu-oxazolone it was 5.59; in the data set on biotinyl-Met-oxazolone it was 4.14; with biotinyl-Ile-oxazolone, 3.48.
As to “AUUACCCUGGUCGUCGAAUGA [Fam2.1 aminoacylation ribozyme variant]”, the self-aminoacylation in the data set on biotinyl-Val-oxazolone worked out at 0.838; in the data set with biotinyl-Trp-oxazolone, 1.1; with biotinyl-Phe-oxazolone it was 3.37; with biotinyl-Leu-oxazolone, 0.734; in the data set with biotinyl-Met-oxazolone, 1.22; in the data set with biotinyl-Ile-oxazolone, 0.785.
Turning to “AUUACCCUGGUCUACGAGUGA [Fam2.1 aminoacylation ribozyme variant]”, the self-aminoacylation in the data set on biotinyl-Val-oxazolone was determined as 3.68; in the data set with biotinyl-Trp-oxazolone, 7.19; in the data set on biotinyl-Phe-oxazolone, 25.5; in the data set with biotinyl-Leu-oxazolone, 6.37; with biotinyl-Met-oxazolone it was 6.17; with biotinyl-Ile-oxazolone it was 3.67.
In the case of “AUUACCCUGGUCUUCGAAUGA [Fam2.1 aminoacylation ribozyme variant]”, the self-aminoacylation with biotinyl-Val-oxazolone turned out to be 0.728; with biotinyl-Trp-oxazolone, 0.642; in the data set on biotinyl-Phe-oxazolone it was 0.408; with biotinyl-Leu-oxazolone it was 0.694; with biotinyl-Met-oxazolone, 0.746; in the data set with biotinyl-Ile-oxazolone, 0.649.
On to “AUUACCCUGGUCUUGGAGUGA [Fam2.1 aminoacylation ribozyme variant]”, for which the self-aminoacylation was 1.98 with biotinyl-Val-oxazolone; 4.3 in the data set on biotinyl-Trp-oxazolone; 5.63 in the data set on biotinyl-Phe-oxazolone; 3.23 with biotinyl-Leu-oxazolone; 2.24 with biotinyl-Met-oxazolone; 2.27 in the data set with biotinyl-Ile-oxazolone.
On to “AUUACCCUGGUGAUCGACUGA [Fam2.1 aminoacylation ribozyme variant]”, for which the self-aminoacylation with biotinyl-Val-oxazolone worked out at 1.02; in the data set on biotinyl-Trp-oxazolone it was 0.743; in the data set on biotinyl-Phe-oxazolone, 0.543; in the data set with biotinyl-Leu-oxazolone, 1.12; in the data set with biotinyl-Met-oxazolone, 0.951; with biotinyl-Ile-oxazolone, 1.05.
With “AUUACCCUGGUGAUCGAGUCA [Fam2.1 aminoacylation ribozyme variant]”, the self-aminoacylation was determined as 0.859 in the data set with biotinyl-Val-oxazolone; 0.415 in the data set on biotinyl-Trp-oxazolone; 0.521 with biotinyl-Phe-oxazolone; 0.741 in the data set on biotinyl-Leu-oxazolone; 0.978 in the data set with biotinyl-Met-oxazolone; 0.912 with biotinyl-Ile-oxazolone.
Consider “AUUACCCUGGUGAUGGAGUGA [Fam2.1 aminoacylation ribozyme variant]”, for which the self-aminoacylation is 2.55 in the data set with biotinyl-Val-oxazolone; 5.69 with biotinyl-Trp-oxazolone; 31.1 in the data set on biotinyl-Phe-oxazolone; 5.75 in the data set on biotinyl-Leu-oxazolone; 5.67 in the data set on biotinyl-Met-oxazolone; 2.62 with biotinyl-Ile-oxazolone.
For the sequence “AUUACCCUGGUGAUUGAGUGA [Fam2.1 aminoacylation ribozyme variant]”, the self-aminoacylation with biotinyl-Val-oxazolone amounted to 3.55; in the data set with biotinyl-Trp-oxazolone, 9.23; in the data set on biotinyl-Phe-oxazolone it was 57.1; with biotinyl-Leu-oxazolone it was 7.64; in the data set with biotinyl-Met-oxazolone, 7.66; in the data set on biotinyl-Ile-oxazolone it was 3.55.
For the sequence “AUUACCCUGGUUAACGAGUGA [Fam2.1 aminoacylation ribozyme variant]”, the self-aminoacylation is 6.35 in the data set on biotinyl-Val-oxazolone; 17.3 with biotinyl-Trp-oxazolone; 106 in the data set on biotinyl-Phe-oxazolone; 14.4 in the data set on biotinyl-Leu-oxazolone; 14.1 with biotinyl-Met-oxazolone; 5.85 with biotinyl-Ile-oxazolone.
